These results are taken from publication PMC12639820, “Antifactor H Autoantibody Characterization in Atypical Hemolytic Uremic Syndrome” (Kidney International Reports, 2025).

In the assay the target is T1, purified human C3b (human, UniProt P01024 23-667; P01024 749-1663).
T1 construct: C3b is the two-chain cleavage product of C3; source: purified human C3b
The assay can be described thus: ELISA; C3b (5 ug/ml) or C3d (5 ug/ml) coated on wells; purified biotinylated human FH (6 ug/ml) preincubated in solution with different amounts of total IgG from patient serum (kAb) or NHS. The following applies: both partners purified.

T1 sequence (P01024 23-667, chain 1 of 2): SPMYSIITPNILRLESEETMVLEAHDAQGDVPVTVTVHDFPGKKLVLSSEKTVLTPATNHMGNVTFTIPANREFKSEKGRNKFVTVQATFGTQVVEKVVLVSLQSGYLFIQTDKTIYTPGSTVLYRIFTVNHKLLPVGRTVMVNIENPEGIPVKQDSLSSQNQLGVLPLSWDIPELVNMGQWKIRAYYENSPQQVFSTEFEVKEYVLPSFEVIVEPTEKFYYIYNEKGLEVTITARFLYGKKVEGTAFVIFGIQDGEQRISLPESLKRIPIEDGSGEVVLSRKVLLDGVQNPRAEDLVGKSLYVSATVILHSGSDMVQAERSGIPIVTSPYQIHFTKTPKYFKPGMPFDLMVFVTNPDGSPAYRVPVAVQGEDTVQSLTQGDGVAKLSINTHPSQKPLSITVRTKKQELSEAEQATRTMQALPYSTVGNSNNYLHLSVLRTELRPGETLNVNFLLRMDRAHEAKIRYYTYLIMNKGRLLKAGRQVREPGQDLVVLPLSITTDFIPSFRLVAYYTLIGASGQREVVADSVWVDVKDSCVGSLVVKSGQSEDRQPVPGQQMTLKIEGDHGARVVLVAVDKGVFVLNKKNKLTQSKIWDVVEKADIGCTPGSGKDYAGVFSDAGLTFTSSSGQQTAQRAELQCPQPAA
T1 sequence (P01024 749-1663, chain 2 of 2): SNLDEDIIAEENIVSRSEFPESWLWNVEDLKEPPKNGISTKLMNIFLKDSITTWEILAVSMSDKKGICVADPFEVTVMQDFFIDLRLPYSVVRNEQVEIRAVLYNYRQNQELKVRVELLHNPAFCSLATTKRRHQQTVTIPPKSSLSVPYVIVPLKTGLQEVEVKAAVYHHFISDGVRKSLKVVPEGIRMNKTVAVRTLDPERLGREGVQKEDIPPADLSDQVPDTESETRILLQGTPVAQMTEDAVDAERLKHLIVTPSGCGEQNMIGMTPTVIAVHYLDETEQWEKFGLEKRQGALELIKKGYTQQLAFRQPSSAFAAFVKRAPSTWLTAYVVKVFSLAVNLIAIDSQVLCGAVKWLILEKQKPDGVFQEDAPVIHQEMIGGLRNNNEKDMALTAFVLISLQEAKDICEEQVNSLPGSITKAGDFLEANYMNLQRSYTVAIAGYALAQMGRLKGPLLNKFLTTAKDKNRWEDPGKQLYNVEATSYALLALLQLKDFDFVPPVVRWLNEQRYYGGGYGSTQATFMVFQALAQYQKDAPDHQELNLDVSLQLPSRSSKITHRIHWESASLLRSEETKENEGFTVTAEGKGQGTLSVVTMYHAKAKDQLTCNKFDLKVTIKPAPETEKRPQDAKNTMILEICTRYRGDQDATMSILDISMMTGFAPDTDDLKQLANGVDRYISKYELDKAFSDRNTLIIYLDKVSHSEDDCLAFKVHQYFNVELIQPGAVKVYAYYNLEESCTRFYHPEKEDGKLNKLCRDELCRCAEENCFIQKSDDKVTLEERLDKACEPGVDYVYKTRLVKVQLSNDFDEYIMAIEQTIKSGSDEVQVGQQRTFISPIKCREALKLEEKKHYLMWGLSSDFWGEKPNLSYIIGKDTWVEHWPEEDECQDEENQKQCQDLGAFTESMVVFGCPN

B1: purified biotinylated human factor H (natural protein, UniProt P08603 19-1231, looked up)
chain: EDCNELPPRRNTEILTGSWSDQTYPEGTQAIYKCRPGYRSLGNVIMVCRKGEWVALNPLRKCQKRPCGHPGDTPFGTFTLTGGNVFEYGVKAVYTCNEGYQLLGEINYRECDTDGWTNDIPICEVVKCLPVTAPENGKIVSSAMEPDREYHFGQAVRFVCNSGYKIEGDEEMHCSDDGFWSKEKPKCVEISCKSPDVINGSPISQKIIYKENERFQYKCNMGYEYSERGDAVCTESGWRPLPSCEEKSCDNPYIPNGDYSPLRIKHRTGDEITYQCRNGFYPATRGNTAKCTSTGWIPAPRCTLKPCDYPDIKHGGLYHENMRRPYFPVAVGKYYSYYCDEHFETPSGSYWDHIHCTQDGWSPAVPCLRKCYFPYLENGYNQNYGRKFVQGKSIDVACHPGYALPKAQTTVTCMENGWSPTPRCIRVKTCSKSSIDIENGFISESQYTYALKEKAKYQCKLGYVTADGETSGSITCGKDGWSAQPTCIKSCDIPVFMNARTKNDFTWFKLNDTLDYECHDGYESNTGSTTGSIVCGYNGWSDLPICYERECELPKIDVHLVPDRKKDQYKVGEVLKFSCKPGFTIVGPNSVQCYHFGLSPDLPICKEQVQSCGPPPELLNGNVKEKTKEEYGHSEVVEYYCNPRFLMKGPNKIQCVDGEWTTLPVCIVEESTCGDIPELEHGWAQLSSPPYYYGDSVEFNCSESFTMIGHRSITCIHGVWTQLPQCVAIDKLKKCKSSNLIILEEHLKNKKEFDHNSNIRYRCRGKEGWIHTVCINGRWDPEVNCSMAQIQLCPPPPQIPNSHNMTTTLNYRDGEKVSVLCQENYLIQEGEEITCKDGRWQSIPLCVEKIPCSQPPQIEHGTINSSRSSQESYAHGTKLSYTCEGGFRISEENETTCYMGKWSSPPQCEGLPCKSPPEISHGVVAHMSDSYQYGEEVTYKCFEGFGIDGPAIAKCLGEKWSHPPSCIKTDCLSLPSFENAIPMGEKKDVYKAGEQVTYTCATYYKMDGASNVTCINSRWTGRPTCRDTSCVNPPTVQNAYIVSRQMSKYPSGERVRYQCRSPYEMFGDEEVMCLNGNWTEPPQCKDSTGKCGPPPPIDNGDITSFPLSVYAPASSVEYQCQNLYQLEGNKRITCRNGQWSEPPKCLHPCVISREIMENYNIALRWTAKQKLYSRTGESVEFVCKRGYRLSSRSHTLRTTCWDGKLEYPTCAKR
modifications: biotin (biotinylated; sites not stated)
notes: complement factor H, human, 155 kDa serum protein of 20 CCP domains; purified human protein; also called FH; source: purified human FH, biotinylated
For B1, the binding result is listed as “binds”.
